The target in the assay is T1, Odr10 labelled with GFP2 at the C-terminus (C. elegans).
T1 construct: Fusion protein expressed in S. cerevisiae Invsc1; Assayed in living yeast cells (BRET2) and as digitonin-solubilised crude membrane (co-immunoprecipitation); also called odr-10-GFP2; Odr10-GFP2
Kind of assay: co-immunoprecipitation with anti-GFP antibody from a mixture of solubilised membranes that expressed each fusion separately (control). How it is done: Membrane protein solubilisation and immunoprecipitation procedures were modified according to the method described by Ayoub et al. (2002). Crude membrane was solubilised with 0.5% digitonin (Sigma) and this mixture was stirred for 3 h at 4° C. Non-solubilised membrane proteins were removed by centrifugation at 18,000×g for 30 mins at 4° C. The digitonin concentration was adjusted to 0.2% using cold Buffer B and the polyclonal anti-GFP antibodies (Sapphire Bioscience, Cat No 120-29000) were added to a final dilution of 1:1000. Immune complex formation was allowed to proceed for 12 h at 4° C. with gentle agitation and Protein A-agarose suspension (Sigma) was added to a final volume of 1:10 (agarose suspension:sample) for incubation for another 6 h with gentle agitation at 4° C. After centrifugation for 1 min at 5000×g, supernatant was decanted and the agarose beads washed five times with 0.5 ml of cold Buffer C (Buffer B+0.2% digitonin). Precipitates were analysed by assessing luciferase activity in a luminometer (BMGLabtech) using coelenterazine as substrate (Biosynth AG, Switzerland).
Oligomerisation of Odr-10 in the living yeast cells was confirmed by the pairwise expression of receptor-Rluc and -GFP² fusion, followed by precipitation using anti-green fluorescence protein antibodies and measuring co-immunoprecipitated luciferase activity. […]

A value given as a limit tells only on which side of the number the result lay.

B1: Odr10 labelled with Rluc at the C-terminus (receptor)
chain: MSGELWITLVDTADIVGVTLTFCVNIVLLGLLKTRGKNLGTYKYLMAFFSVFSIFYAIIEFILRPIMHIENTTFFLISRKRFNYSTKLGKINSAFYCACFATSFVVSGVHFVYRYFATCKPNLLRLFNLPTLLLWPLGCSVPVTMWASVSYFLYPDTEYTEAAVTNVLNNHYNWIKKENVSYIAYVYYQYENGVRHIYLKNLLGCFVHYFVMSMTFVVMFYCGYATWKTMNEHKDVSDRTRALQKQLFKALVLQTLIPTIFMYAPTGVMFIAPFFDVNLNANANFIVFCSFLYPGLDPLILILIIRDFRRTIFNFLCGKKNSVDESRSTTRANLSQVPTMTSKVYDPEQRKRMITGPQWWARCKQMNVLDSFINYYDSEKHAENAVIFLHGNAASSYLWRHVVPHIEPVARCIIPDLIGMGKSGKSGNGSYRLLDHYKYLTAWFELLNLPKKIIFVGHDWGACLAFHYSYEHQDKIKAIVHAESVVDVIESWDEWPDIEEDIALIKSEEGEKMVLENNFFVETMLPSKIMRKLEPEEFAAYLEPFKEKGEVRRPTLSWPREIPLVKGGKPDVVQIVRNYNAYLRASDDLPKMFIESDPGFFSNAIVEGAKKFPNTEFVKVKGLHFSQEDAPDEMGKYIKSFVERVLKNEQ
notes: Fusion protein expressed in S. cerevisiae Invsc1; Assayed in living yeast cells (BRET2) and as digitonin-solubilised crude membrane (co-immunoprecipitation); also called odr-10-Rluc; Odr10-Rluc
B1: the “luciferase activity recovered relative to co-expressed odr-10-GFP^2 and odr-10-Rluc” value was below 20%.

The record behind these values is US20120077210A1 (COMMONWEALTH SCIENTIFIC AND INDUSTRIAL RESEARCH ORGANISATION, published 2012).
